The values that follow come from patent publication US9889184B2 (priority 2008, dated 2018).

Experiment [1] concerns Fusarium oxysporum f. sp. vasinfectum (Fov). The experiment in a line: Growth inhibition of Fov by NaD1 (microtitre OD595). Type of experiment: cell-based. The protocol: Lyophilized NaD1 (500 μg) was dissolved in 400 μL of stock buffer (200 mM Tris-HCl pH 8.0, 2 mM EDTA, 6 M guanidine-HCl, 0.02% [v/v] Tween-20). Reduction buffer (stock buffer with 15 mM dithiothreitol [DTT]) was added (44 μL) followed by a 4.5 h incubation at 40° C. The reaction mixture was cooled to RT before iodoacetic acid (0.5 M in 1 M NaOH, 55 μL) was added and the incubation continued in the dark for 30 min at RT. A Nanosep omega (Registered) spin column (3K molecular weight cut off, PALL Life Sciences) was used to remove salts, DTT and iodoacetic acid and the protein concentration was determined using the BCA protein assay (Pierce). The effect of reduced and alkylated NaD1 (NaD1R&A) on the growth of Fusarium oxysporum (Fov) was measured as described herein.
Antifungal activity against Fusarium oxysporum f. sp. vasinfectum (Fov, Australian isolate VCG01111 isolated from cotton; from Wayne O'Neill, Farming Systems Institute, DPI, Queensland, Australia), Thielaviopsis basicola (gift from David Nehl, NSW DPI, Narrabri, Australia), Verticillium dahliae (from Helen McFadden, CSIRO Plant Industry, Black Mountain, Australia), Leptosphaeria maculans (from Barbara Howlett, University of Melbourne, Victoria, Australia) and Aspergillus nidulans (from Michael Hynes, University of Melbourne) was assessed essentially as described in Broekaert et al, 1990. Spores were isolated from sporulating cultures growing in either half-strength potato dextrose broth (PDB) (Fov and T. basicola), Czapeck-Dox Broth (V. dahliae) (Difco Laboratories) or 10% (v/v) clarified V8 medium (L. maculans and A. nidulans) by filtration through sterile muslin. Spore concentrations were determined using a hemocytometer and adjusted to 5×10^4 spores/mL in the appropriate growth medium. Spore suspensions (80 μL) were added to the wells of sterile 96-well flat-bottomed microtitre plates along with 20 μL of filter-sterilized (0.22 μm syringe filter; Millipore) NaD1, or water to give final protein concentrations of 0-10 μM. The plates were shaken briefly and placed in the dark at 25° C. without shaking until the optical density at 595 nm of the water control reached approximately 0.2 (24-72 h depending on growth rate). Hyphal growth was estimated by measuring the optical density at 595 nm using a microtitre plate reader (SpectraMax Pro M2; Molecular Devices). Each test was performed in quadruplicate.

The next experiment has as its system Fov hyphae. The experiment in a line: Uptake of NaD1 into hyphae (immunogold EM, bimane fluorescence, immunoblot). Type of experiment: cell-based, Fusarium oxysporum f. sp. vasinfectum. Conditions: fluorescence microscopy, live hyphae. The protocol:
Fov hyphae were grown as described above prior to the addition of NaD1 (10 μM final concentration) to 1 mL of the culture. Samples (100 μL) were collected after 0, 5, 10, 30, 60, 90 and 120 min. Hyphae were collected by centrifugation (10 min, 10,000×g) and the supernatant was stored at −20° C. for analysis. Hyphae were washed (2×10 min) with KCl (0.6 M) to remove any ionically bound protein before they were resuspended in 50 mM CAPS buffer (pH 10.0) containing 10 mM DTT for 20 min. Hyphae were collected by centrifugation and the supernatant, containing cell wall proteins, was collected for analysis. The pellet (containing cells) was resuspended in water and the cells were lysed using glass beads (Sigma, 60 mg) and vortexing (3×10 min). Cellular debris was removed by centrifugation (16,000×g, 10 min) and the supernatant collected for analysis. All samples were then analyzed by SDS-PAGE and immunoblotting.
Fov hyphae were grown for 18 h in half-strength PDB (5 mL) with vigorous shaking at 25° C. from a starting spore suspension of 5×10^4/mL. Hyphae were then treated with 2 μM NaD1 or an equivalent volume of water for 2 h at RT with gentle agitation, and were washed twice in 0.6 M KCl and three times in PBS before fixation in 4% (w/v) paraformaldehyde in PBS for 1 h at 4° C. Hyphae were again washed three times in PBS before dehydration in a standard ethanol series (15 min each, 50%, 70% and 90% ethanol, 3×15 min 100% ethanol). Hyphae were then infiltrated with LR White resin (ProSciTech) for 1 h at RT, followed by 18 h at 4° C., 1 h at RT and 24 h at 60° C. Fresh LR White resin was used at each step. Ultrathin sections were cut and placed on Formvar coated gold grids.
Grids were blocked with PBS containing 8% (w/v) BSA and 1% (v/v) Triton X-100 for 1 h and labeled with α-NaD1 antibodies (2 μg/mL in blocking buffer) for 1 h. Grids were washed in blocking buffer (3×10 min) and labeled with 15 nm gold particle labeled goat α-rabbit IgG antibodies (ProSciTech diluted 1 in 20 for 1 h. Grids were washed again in blocking solution (3×10 min) followed by water (15 min) before being air-dried. A JEOL JEM2010HC x e80 KV transmission electron microscope was used to examine labeled grids. Pictures were taken on Kodak EM film (ProSciTech) and developed in a dark room before scanning on a Hewlett Packard Scanjet 5P scanner.
Hyphae grown for 18 h as described were treated with NaD1-bimane (2 μM) for between 10 min and 6 h. Hyphae were then visualized by fluorescence microscopy using an MWU filter (excitation wavelength of 330-385 nm).

Experiment [2] deals with Fusarium oxysporum species. Conditions: cited from earlier work.
The test system of another experiment is Fusarium graminearum. Format: cell-based. Particulars: for fungicidal activity in combination with NaD1: F. graminearum, conditions of the fungal bioassay; for fungicidal activity of the proteinase inhibitor on its own: not combined with NaD1, F. graminearum; for effect on hyphal growth: concentrations up to 18.5 uM in the absence of NaD1.
Another experiment deals with T1, cathepsin L (Homo sapiens, UniProt P07711).
T1 construct: purchased Sigma
Kind of experiment: Cysteine proteinase inhibitory activity, ZFR-MCA substrate. Conditions: bacterially expressed cystatin, FIG. 1E. Format: biochemical. As for the experimental part: (§1) The cysteine proteinase inhibitory activity of bacterially expressed NaCys1, NaCys3 and NaCys4 was determined using the enzymes papain and cathepsin L (Sigma). The assay mixtures (final volume 250 uL) contained papain or cathepsin L (50 nM final concentration), 100 uL of ZFR-MCA substrate (0.2 mM, Bachem, Melo et al., 2001), 100 uL of reaction buffer (0.2 M sodium acetate, 4 mM EDTA, 8 mM DTT, pH 5.5) and 50 uL of cystatin (for 0-20 uM final concentration). Released fluorescence was measured at 460 nm (excitation at 340 nm) after a 10 or 50 min incubation for papain and cathepsin L, respectively, at 37° C.

A further experiment concerns the target T2, papain (Carica papaya, UniProt P00784).
T2 construct: purchased Sigma
T2 sequence (P00784 134-345): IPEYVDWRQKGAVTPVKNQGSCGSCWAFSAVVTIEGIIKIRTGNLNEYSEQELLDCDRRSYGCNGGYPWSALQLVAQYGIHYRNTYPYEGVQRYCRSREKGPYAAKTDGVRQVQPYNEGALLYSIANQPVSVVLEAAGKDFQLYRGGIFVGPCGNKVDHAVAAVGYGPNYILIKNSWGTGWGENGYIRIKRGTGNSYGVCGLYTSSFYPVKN
Described as above. Type of experiment: biochemical. Particulars: bacterially expressed cystatin, FIG. 1D. The protocol:
as §1

No end group written: not given here.

T1 sequence (P07711 114-333, species assumed): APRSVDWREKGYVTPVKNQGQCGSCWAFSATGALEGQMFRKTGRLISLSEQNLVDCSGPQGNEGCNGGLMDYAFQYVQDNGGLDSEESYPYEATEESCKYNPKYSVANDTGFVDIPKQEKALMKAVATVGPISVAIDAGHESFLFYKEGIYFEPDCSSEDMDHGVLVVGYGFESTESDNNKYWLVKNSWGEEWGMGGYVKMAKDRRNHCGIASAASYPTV

In the case of “NaD1 labeled with FITC: NaD1 labeled with FITC via reactive amine groups (RECKTESNTFPGICITKPPCRKACISEKFTDGHCSKILRRCLCTKPC; ends and bridges not checked; also: FITC label via reactive amine groups (position not given here); UniProt Q8GTM0 26-72, looked up)”, in experiment [1], the “antifungal activity of fluorophore-labeled NaD1” value was “not biologically active”.

For “NaD1-bimane: NaD1 labeled with the fluorophore bimane amine at carboxyl residues (RECKTESNTFPGICITKPPCRKACISEKFTDGHCSKILRRCLCTKPC; ends and bridges not checked; also: bimane amine fluorophore label at carboxyl residues (position not given here); UniProt Q8GTM0 26-72, looked up)”, the “antifungal activity of fluorophore-labeled NaD1” value in experiment [1] is listed as “retained full antifungal activity”. Besides, the “time at which internalization was observed” value with Fov hyphae lay in the range of 20 to 30 min.

For the molecule “Tomdef2: defensin isolated from tomato flowers (SEQ ID NO:22) (QQICKAPSQTFPGLCFMDSSCRKYCIKEKFTGGHCSKLQRKCLCTKPC; Solanum lycopersicum var. cerasiforme (Tomdef2))”, the “activity in inhibiting Fusarium oxysporum species” value in experiment [2] is “active in inhibiting”.

Regarding `CC(C)C[C@H](NC(=O)[C@H]1O[C@@H]1C(=O)O)C(=O)NCCCCN=C(N)N` [E64, reference compound], in the experiment on Fusarium graminearum, the “fungicidal activity in combination with NaD1” value is reported as “no fungicidal activity” and the “fungicidal activity of the proteinase inhibitor on its own” value is listed as “no fungicidal activity”.

Consider “PhD1A: defensin isolated from petunia (Petunia hybrida) flowers (SEQ ID NO:24) (ATCKAECPTWDGICINKGPCVKCCKAQPEKFTDGHCSKILRRCLCTKPC; Petunia hybrida (PhD1A))”, for which the “activity in inhibiting Fusarium oxysporum species” value in experiment [2] was “active in inhibiting”.

B1: chicken egg white cystatin: cysteine proteinase inhibitor (12.7 kDa), Sigma C8917 (protein, UniProt P01038 24-139, looked up)
Cystatin: SEDRSRLLGAPVPVDENDEGLQRALQFAMAEYNRASNDKYSSRVVRVISAKRQLVSGIKYILQVEIGRTTCPKSSGDLQSCEFHDEPEMAKYTTCTFVVYSIPWLNQIKLLESKCQ
As to B1, in the experiment on Fusarium graminearum, the “fungicidal activity in combination with NaD1” value is “no fungicidal activity” and the “fungicidal activity of the proteinase inhibitor on its own” value was “no fungicidal activity”.

B2: PhD2: plant defensin from Petunia hybrida, accession Q8H6Q0 (protein)
chain: MARSICFFAVAILALMLFAAYETEAGTCKAECPTWEGICINKAPCVKCCKAQPEKFTDGHCSKILRRCLCTKPCATEEATATLANEVKTMAEALVEEDMME
modifications: Petunia hybrida (PhD2Full length)
B2: in experiment [2], the “activity in inhibiting Fusarium oxysporum species” value is recorded as “active in inhibiting”.

B3: NaCys1: cystatin from Nicotiana alata, bacterially expressed (SEQ ID NO:2) (protein)
chain: MATLGGIREAGGSENSLEINDLARFAVDEHNKKQNALLEFGKVVNVKEQVVAGTMYYITLEATEGGKKKAYEAKVWVKPWQNFKQLEDFKLIGDAASA
modifications: Nicotiana alata (NaCys1)
Take B3: the “effect on hyphal growth” value in the experiment with Fusarium graminearum was “no effect on hyphal growth”. Moreover, the “inhibition of Cathepsin L” value with cathepsin L was “better inhibitors of Cathepsin L than NaCys4”. Also, the “inhibition of the cysteine proteinase papain” value in the experiment with papain is reported as “strong inhibitors”.

B4: NaCys3: cystatin from Nicotiana alata, bacterially expressed (SEQ ID NO:6) (protein)
chain: MANLGGIREAGGSENSLEINDLARFAVDEHNKKQNALLEFGKVVNVKEQVVAGTMYYITLEATEGGKKKAYEAKVWVKPWQNFKQLEDFKLIGDAASA
modifications: Nicotiana alata (NaCys3)
With B4, in the experiment with Fusarium graminearum, the “effect on hyphal growth” value is “no effect on hyphal growth”. Further, the “inhibition of Cathepsin L” value in the experiment with cathepsin L was “better inhibitors of Cathepsin L than NaCys4”. In addition, the “inhibition of the cysteine proteinase papain” value with papain was “strong inhibitors”.

B5: NaCys4: cystatin from Nicotiana alata (SEQ ID NO:8), tryptophan to arginine substitution at position 80 (protein)
chain: MANLGGIREAGGSENSLEINDLARFAVDEHNKKQNALLEFGKVVNVKEQVVAGTMYYITLEATEGGKKKAYEAKVWVKPRQNFKQLEDFKLIGDAASA
modifications: Nicotiana alata (NaCys4)
B5: the “inhibition of the cysteine proteinase papain” value with papain is “relatively poor inhibitor”.

B6: Soybean trypsin inhibitor Type II-S: serine proteinase inhibitor (21 kDa), Sigma T9128 (protein, UniProt P01070 25-205, looked up)
Trypsin inhibitor A: DFVLDNEGNPLENGGTYYILSDITAFGGIRAAPTGNERCPLTVVQSRNELDKGIGTIISSPYRIRFIAEGHPLSLKFDSFAVIMLCVGIPTEWSVVEDLPEGPAVKIGENKDAMDGWFRLERVSDDEFNNYKLVFCPQQAEDDKCGDIGISIDHDDGTRRLVVSKNKPLVVQFQKLDKESL
For the molecule B6, in the experiment with Fusarium graminearum, the “fungicidal activity in combination with NaD1” value is listed as “no fungicidal activity” and the “fungicidal activity of the proteinase inhibitor on its own” value is listed as “no fungicidal activity”.
